Laboratory results reported in article PMC3433420, “Comprehensive Binary Interaction Mapping of SH2 Domains via Fluorescence Polarization Reveals Novel Functional Diversification of ErbB Receptors” (PLoS ONE, 2012).
Non-standard residues stand in square brackets, D forms with d. No end group written: not given here. pY = N[C@@H](Cc1ccc(OP(=O)(O)O)cc1)C(=O)O; Rhodamine = not defined here; rhodamine = not defined here

Key:
Details in all cases: both partners purified
GRB2 SH2 domain = biological target: T1, GRB2 SH2 domain (human, UniProt P62993 60-152); assay: fluorescence polarisation; competition: rhodamine peptide 10 nM, protein at four times its KD, unlabeled competitor peptide in 11 serial 1:3 dilutions; Ki from IC50, one-site model
T1 construct: GRB2, human; source: bacterial expression, purified
T1 sequence (P62993 60-152): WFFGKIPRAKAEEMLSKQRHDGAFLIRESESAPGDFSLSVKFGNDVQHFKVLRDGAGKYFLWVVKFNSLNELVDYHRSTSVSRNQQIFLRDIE

[1] = biological target: T2, PLCG1 C-terminal SH2 domain (human); assay: fluorescence polarisation; saturation binding in solution: rhodamine peptide fixed at 10 nM, protein titrated 0.002-10 uM, 20 min at room temperature; assay buffer 20 mM HEPES, 100 mM KCl, 0.1% Tween-20, 5 mM DTT, pH 7.8; apparent KD
T2 construct: PLCG1, human; source: bacterial expression, purified
T2 sequence (P19174 whole entry, looked up): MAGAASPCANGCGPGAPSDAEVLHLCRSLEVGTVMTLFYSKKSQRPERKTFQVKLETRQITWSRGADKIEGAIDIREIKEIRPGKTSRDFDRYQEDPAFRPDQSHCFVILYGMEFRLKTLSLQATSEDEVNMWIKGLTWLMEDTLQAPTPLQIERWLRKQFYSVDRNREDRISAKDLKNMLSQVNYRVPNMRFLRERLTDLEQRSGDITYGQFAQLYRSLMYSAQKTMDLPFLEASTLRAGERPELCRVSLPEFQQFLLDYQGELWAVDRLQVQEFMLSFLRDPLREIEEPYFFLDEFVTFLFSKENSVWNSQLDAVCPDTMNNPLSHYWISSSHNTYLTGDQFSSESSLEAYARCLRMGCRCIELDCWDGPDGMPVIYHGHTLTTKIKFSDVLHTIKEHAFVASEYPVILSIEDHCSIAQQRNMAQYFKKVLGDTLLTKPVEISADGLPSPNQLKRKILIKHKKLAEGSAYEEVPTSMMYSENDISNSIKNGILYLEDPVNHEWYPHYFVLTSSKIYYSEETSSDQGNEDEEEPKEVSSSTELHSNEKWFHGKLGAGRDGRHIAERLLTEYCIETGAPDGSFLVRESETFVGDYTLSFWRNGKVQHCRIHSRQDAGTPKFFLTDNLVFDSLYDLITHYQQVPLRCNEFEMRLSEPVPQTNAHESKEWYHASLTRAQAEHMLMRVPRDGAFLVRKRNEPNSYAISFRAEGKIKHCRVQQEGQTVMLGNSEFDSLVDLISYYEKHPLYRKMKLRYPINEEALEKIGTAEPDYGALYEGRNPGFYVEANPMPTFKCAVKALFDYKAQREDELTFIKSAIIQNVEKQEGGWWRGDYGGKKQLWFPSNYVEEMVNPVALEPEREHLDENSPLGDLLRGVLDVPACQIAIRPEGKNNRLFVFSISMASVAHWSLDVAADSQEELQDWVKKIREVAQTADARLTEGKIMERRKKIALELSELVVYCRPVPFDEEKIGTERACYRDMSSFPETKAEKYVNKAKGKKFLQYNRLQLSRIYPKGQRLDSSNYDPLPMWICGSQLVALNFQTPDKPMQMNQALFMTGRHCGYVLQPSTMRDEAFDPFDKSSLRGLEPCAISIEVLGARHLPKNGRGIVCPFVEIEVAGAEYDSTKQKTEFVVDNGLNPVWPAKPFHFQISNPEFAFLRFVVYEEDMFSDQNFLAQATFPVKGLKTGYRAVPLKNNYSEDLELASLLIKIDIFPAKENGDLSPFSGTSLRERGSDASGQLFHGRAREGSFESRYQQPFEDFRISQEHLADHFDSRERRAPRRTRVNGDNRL

[2] = biological target: T3, PIK3R1 N-terminal SH2 domain (human); assay: SPR; Biacore 3000; 6X His SH2 proteins held on a Ni-NTA chip, dye-free peptides in solution, equilibrium
T3 construct: PIK3R1, human; source: bacterial expression, purified

[3] = biological target: T4, PIK3R3 C-terminal SH2 domain (human); assay: as above
T4 construct: PIK3R3, human; source: bacterial expression, purified

GRB7 SH2 domain = biological target: T5, GRB7 SH2 domain (human, UniProt Q14451 431-527); assay: fluorescence polarisation; competition: rhodamine peptide 10 nM, protein at four times its KD, unlabeled competitor peptide in 11 serial 1:3 dilutions; Ki from IC50, one-site model
T5 construct: GRB7, human; source: bacterial expression, purified
T5 sequence (Q14451 431-527): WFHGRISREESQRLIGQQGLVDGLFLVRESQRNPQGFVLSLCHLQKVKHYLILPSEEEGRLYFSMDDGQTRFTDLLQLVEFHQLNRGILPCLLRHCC

[4] = biological target: T3, PIK3R1 N-terminal SH2 domain; assay: fluorescence polarisation; saturation binding in solution: rhodamine peptide fixed at 10 nM, protein titrated 0.002-10 uM, 20 min at room temperature; assay buffer 20 mM HEPES, 100 mM KCl, 0.1% Tween-20, 5 mM DTT, pH 7.8; apparent KD
[5] = biological target: T4, PIK3R3 C-terminal SH2 domain; assay: as above
[6] = biological target: T2, PLCG1 C-terminal SH2 domain; assay: SPR; Biacore 3000; 6X His SH2 proteins held on a Ni-NTA chip, dye-free peptides in solution, equilibrium
PTK6 SH2 domain [7] = biological target: T6, PTK6 SH2 domain (human, UniProt Q13882 78-170); assay: fluorescence polarisation; competition; fluorescent peptide 10 nM, protein at four times the calculated KD, unlabeled competitor peptide at 11 serial 1:3 dilutions; at least 20 minutes; IC50 from a four-parameter log-logistic fit, one-site competition model
T6 construct: PTK6, human; SH2 domain; source: bacterial expression culture, purified
T6 sequence (Q13882 78-170): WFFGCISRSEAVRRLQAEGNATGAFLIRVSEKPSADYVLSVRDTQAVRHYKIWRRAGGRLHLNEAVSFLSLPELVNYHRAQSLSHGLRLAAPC

PTK6 SH2 domain [8] = biological target: T6, PTK6 SH2 domain; assay: fluorescence polarisation; saturation binding in solution; rhodamine-labeled peptide fixed at 10 nM, protein titrated 0.002-10 µM (twelve two-fold dilutions); 20 minutes at room temperature in the dark; assay buffer 20 mM HEPES, 100 mM KCl, 0.1% Tween-20, 5 mM DTT, pH 7.8; apparent KD; assay detection threshold of 20 µM
PTK6 SH2 domain [9] = biological target: T7, PTK6 SH2 domain (human, UniProt Q13882 78-170); assay: fluorescence polarisation; saturation binding in solution: rhodamine peptide fixed at 10 nM, protein titrated 0.002-10 uM, 20 min at room temperature; assay buffer 20 mM HEPES, 100 mM KCl, 0.1% Tween-20, 5 mM DTT, pH 7.8; apparent KD
T7 construct: PTK6, human; source: bacterial expression, purified
T7 sequence (Q13882 78-170): as above

B1: ErbB4pY1208 phosphopeptide, unlabeled competitor (peptide)
peptide: NEPL[pY]LNTFANTD
notes: human ErbB4 around Tyr1208; source: synthetic peptide
B1 showed a Ki (GRB2 SH2 domain) of 6.85 µM.

Rhodamine-NNYV[pY]IDPTQLPD (reading uncertain) [KIT pY570 phosphopeptide, rhodamine-labelled] was tested, and the Kd [1] was 3830 nM.

Binder QEAN[pY]VPMTPGTD [Gab1 pY472 phosphopeptide, dye-free] has a Kd [2] of 251 nM and a Kd [3] of 18 nM.

B2: ErbB3pY1197 phosphopeptide, unlabeled competitor (peptide)
peptide: EDEE[pY]EYMNRRRD
notes: human ErbB3 around Tyr1197; source: synthetic peptide
Binder B2 has a Ki (GRB7 SH2 domain) of 113 nM.

Rhodamine-QEAN[pY]VPMTPGTD (reading uncertain) [Gab1 pY472 phosphopeptide, rhodamine-labelled] gave a Kd [4] of 2.33 µM and a Kd [5] of 255 nM.

Work on DPQD[pY]LLLINCQD [Gab1 pY183 phosphopeptide, dye-free] yielded a Kd [6] of 146 nM, a Kd [2] of 722 nM and a Kd [3] of 137 nM.

With rhodamine-FGCV[pY]HGTLLDND (reading uncertain) [MET pY1093 phosphopeptide, rhodamine-labelled] the Kd [5] was 2560 nM.

For Rhodamine-DPQD[pY]LLLINCQD (reading uncertain) [Gab1 pY183 phosphopeptide, rhodamine-labelled], the Kd [1] was 2040 nM, the Kd [4] was 4.26 µM and the Kd [5] was 3790 nM.

B3: ErbB3pY1260 phosphopeptide, unlabeled competitor (peptide)
peptide: PDED[pY]EYMNRQRD
notes: human ErbB3 around Tyr1260; source: synthetic peptide
Work on B3 yielded a Ki (GRB7 SH2 domain) of 131 nM.

B4: ErbB2pY1139 phosphopeptide, unlabeled competitor (peptide)
peptide: PQPE[pY]VNQPDVRD
notes: human ErbB2 around Tyr1139; source: synthetic peptide
In the case of B4, the Ki (GRB2 SH2 domain) is reported as 1.71 µM.

For FGTV[pY]KGIWIPD [ErbB2-pY735 phosphopeptide, unlabeled competitor], the IC50 (PTK6 SH2 domain [7]) was 148 µM.

Binder TNHI[pY]SNLANCS [KIT pY936 phosphopeptide, dye-free] has a Kd [3] of 4 nM.

In the case of Rhodamine-FGTV[pY]KGIWIPD (reading uncertain) [ErbB2-pY735 phosphopeptide, rhodamine-labelled], the Kd (PTK6 SH2 domain [8]) is reported as no less than 20 µM.

FGCV[pY]HGTLLDN [MET pY1093 phosphopeptide, dye-free] was tested, and the Kd [3] was 3550 nM.

Binder NNYV[pY]IDPTQLPD [KIT pY570 phosphopeptide, dye-free] has a Kd [6] of 1360 nM.

B5: ErbB3pY1289 phosphopeptide, rhodamine-labelled (peptide)
peptide: rhodamine-SEQG[pY]EEMRAFQD
modifications: reading uncertain
notes: human ErbB3 around Tyr1289; also called labeled peptide 7; source: synthetic peptide
With B5 the Kd (PTK6 SH2 domain [9]) was 2110 nM.
